Laboratory results published in paper PMC9067936, “SHIP164 is a chorein motif lipid transfer protein that controls endosome–Golgi membrane traffic” (The Journal of Cell Biology, 2022).

Biological target: the molecule itself
Assay: negative-stain electron microscopy; 2D class averages of negatively stained purified protein (50 nM, 2% uranyl acetate, carbon-coated copper grids); MBP densities used to locate the N-termini

| Protein | stoichiometry N |
| --- | --- |
| 3XFLAG-SHIP164_(Δ901–1099) (natural protein, SHIP164 (UHRF1BP1L), human, codon-optimised ORF from Genscript; construct lacking the predicted unstructured segment, residues 901-1099; Seen as a tail-to-tail dimer in vitro; also called 3×FLAG-SHIP164_(Δ901–1099); UHRF1BP1L; source: Expi293F, transfected, purified (anti-FLAG M2 resin, gel filtration on Superdex 200); not shown: 3xFLAG, N-terminal, kept) not shown | 2 |
| MBP-SHIP164 fusion (MBP fused to the N-terminus of SHIP164_(Δ901–1099)) (natural protein, SHIP164 (UHRF1BP1L), human, codon-optimised ORF; lacks residues 901-1099; Probably made in Expi293F and purified as m1, possibly with a 3xFLAG tag as well; not shown: MBP (E. coli MBP residues 27–392 and two additional alanines), N-terminal, kept) not shown | 2 |
